In publication doi:10.1101/2022.12.06.519310 (bioRxiv, 2022):
Ends that are not written are not given here. * marks the point of attachment. NHCH2CH2(5-OH-indol-3-yl) = Oc1ccc2[nH]cc(CCN*)c2c1

Target: full length recombinant WDR5 (human, UniProt P61964 1-334)
Assay: pull-down

| binding result | Binder |
| --- | --- |
| binds | ARTKQTARKS (also: biotinylated, position not given here) [biotinylated H3 (1-10) unmodified peptide] |
| binds | ARTKQ(NHCH2CH2(5-OH-indol-3-yl))TARKS (also: biotinylated, position not given here) [biotinylated H3 (1-10) Q5ser peptide] |
